The record followed here is PMC12702239, “The regulatory mechanisms of SARS-CoV-2 N protein helicase and its annealing activity”.

Data set [1] has as its target CoV-2 Nsp13 helicase (SARS-CoV-2, UniProt P0DTD1 5325-5925). In words: fluorescence anisotropy; 10-42 C; no significant change. Particulars: protein: recombinant; tags: N-terminal SUMO tag removed with SUMO protease; label: 3'-6-FAM on strand 1; 5' overhang 22 nt, 21 bp.
In data set [2] the target is CoV-2 N (nucleocapsid) (SARS-CoV-2, UniProt P0DTC9 1-419). Kind of data set: fluorescence anisotropy; 50 mM NaCl, no Mg2+, no ATP; FP: 25 mM Tris-HCl pH 7.6, 50 mM NaCl, no Mg2+, 5 nM labelled nucleic acid, 5 min; temperature not stated; Kd from Hill fits (values not in the text). Particulars: protein: recombinant; tags: His6; chain copies: 2; label: 3'-6-FAM on strand 1; 5' overhang 22 nt, 21 bp. Background: Fluorescence polarisation rises when a labelled molecule tumbles more slowly, as on binding a larger partner.

B1: 5'D/D-OhS22D21 (dsDNA)
DNA 1: CTGTAGGAATGTGAAATAAAAACGATGTTTTATTTACATTGTA
DNA 2: TACAATGTAAATAAAACATCG
With B1, the binding result in data set [1] and in data set [2] was “binds” throughout.
